What is called Kd is the free concentration of one partner at which half of the binding sites on the other are occupied at equilibrium, for simple one-to-one binding.

Experimental findings from the Immune Epitope Database (IEDB) are described below.

Targets include HLA-A*02:03; HLA-A*02:06; HLA-A*02:02; HLA-A*31:01; HLA-A*11:01; HLA-A*68:01; HLA-A*03:01; HLA-A*33:01.
What all share (test): IEDB peptide-MHC binding, purified MHC/competitive/radioactivity; filed as Kd, often an IC50 or EC50 that approximates it; ≥ and ≤ were set here for values at or beyond the usual limits of such assays
Where [1] appears, read: source organism: Vaccinia virus WR.
[2] abbreviates: source organism: Dengue virus 2 Jamaica/1409/1983.
The mark [3] stands for this setting: source organism: SARS coronavirus Tor2.
Where [4] appears, read: source organism: Dengue virus 4 Philippines/H241/1956.
[5] abbreviates: source organism: Dengue virus 1 Brazil/97-11/1997.
Where [6] appears, read: source organism: Lymphocytic choriomeningitis virus (strain Armstrong).
[7] abbreviates: source organism: Mammarenavirus machupoense.
The mark [8] stands for this setting: source organism: Mammarenavirus whitewaterense.

Consider IVCIVAAVII, for which the Kd in the assay with HLA-A*02:03 (setting [1]) came out at 1590 nM; with HLA-A*02:06 (setting [1]), 3560 nM; with HLA-A*02:02 (setting [1]), 1460 nM.
As to LMAIDLGEL, in the assay with HLA-A*02:03 (setting [2]), the Kd worked out at 15.3 nM.
In the case of ALYKGFQFI, the Kd with HLA-A*02:03 (setting [3]) was 3.32 nM; in the assay with HLA-A*02:06 (setting [3]), 2.03 nM; with HLA-A*02:02 (setting [3]), 0.532 nM.
For VLAWLYAAV the same measures were 0.311 nM, 8.79 nM and 0.0967 nM.
In the case of TILATLNTLI, the Kd amounted to 29.7 nM in the assay with HLA-A*02:03 (setting [1]), 335 nM with HLA-A*02:06 (setting [1]) and 39.5 nM with HLA-A*02:02 (setting [1]).
For ITDDSDDYEL the same measures were 11900 nM, 49.3 nM and 687 nM.
EQRRSTIFDI: the Kd with HLA-A*02:03 (setting [1]) is 11400 nM; in the assay with HLA-A*02:06 (setting [1]), no less than 25600 nM; with HLA-A*02:02 (setting [1]), no less than 23000 nM.
With TLALSLTFI, the Kd with HLA-A*02:03 (setting [4]) was 1.04 nM.
As for SIKMIYDLNA, the Kd with HLA-A*02:03 (setting [1]) came out at 257 nM; in the assay with HLA-A*02:06 (setting [1]) it was 1030 nM; with HLA-A*02:02 (setting [1]) it was 852 nM.
With FQPESPARL, in the assay with HLA-A*02:06 (setting [4]), the Kd is 36.9 nM.
GIVAIDLDPV: the Kd with HLA-A*02:06 (setting [5]) was 9.7 nM.
IMLIIFWFSL: the Kd with HLA-A*02:03 (setting [3]) worked out at 14900 nM; with HLA-A*02:06 (setting [3]) it was 16800 nM; with HLA-A*02:02 (setting [3]), 1540 nM.
In the case of MAAAKTPVIV, the Kd in the assay with HLA-A*02:03 (setting [1]) was 156 nM; in the assay with HLA-A*02:06 (setting [1]) it was 3630 nM; in the assay with HLA-A*02:02 (setting [1]) it was 6010 nM.
KLFKRERDA: the results for the Kd in the assay with HLA-A*02:03 (setting [1]), with HLA-A*02:06 (setting [1]) and with HLA-A*02:02 (setting [1]) were 985 nM, 14900 nM and 2390 nM, respectively.
LMLKATLLCV: the Kd turned out to be 20.9 nM with HLA-A*02:03 (setting [3]), 63.4 nM with HLA-A*02:06 (setting [3]) and 3.39 nM with HLA-A*02:02 (setting [3]).
On to YTLIYRQLT, for which the Kd in the assay with HLA-A*02:03 (setting [1]) came out at 9420 nM; with HLA-A*02:06 (setting [1]), 17600 nM; in the assay with HLA-A*02:02 (setting [1]), 6410 nM.
As to RLSAAIGKA, in the assay with HLA-A*02:03 (source organism: Dengue virus 1 Singapore/S275/1990), the Kd was 70.7 nM.
As to SVDFVVNGHT, the Kd with HLA-A*02:03 (setting [1]) is no less than 70400 nM; with HLA-A*02:06 (setting [1]) it was no less than 69800 nM; in the assay with HLA-A*02:02 (setting [1]) it was no less than 70000 nM.
Regarding AVYNFATCGI, the Kd with HLA-A*02:03 (setting [6]) was determined as 7.28 nM; in the assay with HLA-A*02:06 (setting [6]) it was 25.2 nM; with HLA-A*02:02 (setting [6]), 25.3 nM.
In the case of PVVYHDDDNT, the Kd with HLA-A*02:03 (setting [1]) is no less than 26800 nM; with HLA-A*02:06 (setting [1]) it was 1350 nM; with HLA-A*02:02 (setting [1]), 9140 nM.
For PAMSTYSDI the same measures were no less than 20600 nM, no less than 77100 nM and 18300 nM.
FLAHYIGTS: in the assay with HLA-A*02:03 (source organism: Dengue virus 3 Martinique/1243/1999), the Kd was found to be 10.7 nM.
EVGTNFGTI: the figures for the Kd with HLA-A*02:03 (setting [1]), with HLA-A*02:06 (setting [1]) and in the assay with HLA-A*02:02 (setting [1]) were 1940 nM, 19900 nM and 5760 nM, respectively.
Turning to KIVGLYGNGV, in the assay with HLA-A*02:06 (setting [5]), the equilibrium dissociation constant (Kd) was determined as 14.7 nM.
Turning to GIAIFNNRNL, the Kd turned out to be 2040 nM with HLA-A*02:03 (setting [1]), 4720 nM with HLA-A*02:06 (setting [1]) and 5.12 nM in the assay with HLA-A*02:02 (setting [1]).
On to SMYGKAFNHA, for which the dissociation constant (Kd) with HLA-A*02:03 (setting [1]) was 0.929 nM; with HLA-A*02:06 (setting [1]) it was 4.03 nM; in the assay with HLA-A*02:02 (setting [1]), 6.58 nM.
Regarding FLNGSCGSV, the Kd was found to be 0.571 nM in the assay with HLA-A*02:03 (setting [3]), 64.5 nM in the assay with HLA-A*02:06 (setting [3]) and 1.05 nM in the assay with HLA-A*02:02 (setting [3]).
As to FLLPLTSLVI, the Kd amounted to 5.07 nM in the assay with HLA-A*02:03 (setting [1]), 2.5 nM in the assay with HLA-A*02:06 (setting [1]) and 11.5 nM in the assay with HLA-A*02:02 (setting [1]).
As for TLGVYDYLV, the Kd with HLA-A*02:03 (setting [3]) turned out to be 936 nM; with HLA-A*02:06 (setting [3]), 74.8 nM; with HLA-A*02:02 (setting [3]) it was 0.245 nM.
For NLLLLFVTI the same measures were 1600 nM, 456 nM and 436 nM.
For KSYFTNAAL, the Kd was determined as 7180 nM with HLA-A*02:03 (setting [7]), 12000 nM with HLA-A*02:06 (setting [7]) and 593 nM with HLA-A*02:02 (setting [7]).
With LLAMGCYSQV, in the assay with HLA-A*02:03 (setting [4]), the Kd turned out to be 2.67 nM.
On to GQVMLLILCV, for which the Kd with HLA-A*02:06 (setting [2]) is 77.2 nM.
As for LTPIFSDLLK, the Kd is 4120 nM with HLA-A*31:01 (setting [1]); 2.37 nM with HLA-A*11:01 (setting [1]); 17.2 nM with HLA-A*68:01 (setting [1]); 24.1 nM with HLA-A*03:01 (setting [1]); 3900 nM in the assay with HLA-A*33:01 (setting [1]).
In the case of QILEENMEV, the Kd in the assay with HLA-A*02:06 (setting [4]) turned out to be 30.5 nM.
Regarding LFTSTNDKIK, the Kd with HLA-A*31:01 (setting [1]) was no less than 65600 nM; with HLA-A*11:01 (setting [1]) it was 915 nM; with HLA-A*68:01 (setting [1]) it was 531 nM; with HLA-A*03:01 (setting [1]) it was no less than 24900 nM; with HLA-A*33:01 (setting [1]) it was no less than 55200 nM.
For NSVANRSKQK the same measures were 17000 nM, 525 nM, 568 nM, 322 nM and no less than 70000 nM.
PMPCMINDTH: the Kd is no less than 70000 nM with HLA-A*31:01 (setting [8]); no less than 69700 nM with HLA-A*11:01 (setting [8]); no less than 70100 nM with HLA-A*68:01 (setting [8]); no less than 70000 nM in the assay with HLA-A*03:01 (setting [8]); no less than 70000 nM with HLA-A*33:01 (setting [8]).
